Laboratory results: the DeepSol protein solubility set

experiment: soluble on expression in E. coli; label from the status in PepcDB or PDB records

| Sequence | soluble on expression in E. coli |
| --- | --- |
| MVFFSVVVPTYNRRPILEKCLRALEQQQISAETAIAGYEVVVVDDGSTDGTVDWLKAQASEFPHVRLFEQDHQGPARARNLGVQQAQGDTIIFIDSDLVVTPPFLQAHATGLEKGRQRLGSDRCFTYGAVINTCNFDNPTAEPFKVTDFSNAYFATGNVAIARHWLETAGLFDTAFQLYGWEDLELGVRLKNLGLKLIRCPEAVGYHWHPPFSLEQIPKLIDQESQRGRMGVLFYQKHPTWEVRLMIQMTWLHRLLWGTLSLGGFLNERTLRPLLAWLLKRDRPQLALEIARIFLNWNNVRSVYAAYRESQGLASSLEHHHHHH | soluble |
| GPGSMIQIIAPRGPLQEMLLLELQGKVVIPPKLLEEERERQRIPNSSEEEVKACSQVTGGKRLREDGECGVNVDTNQVVEVPLGCVVWDSRNETRCSLQIGTVEVSGSYGKRREPLLVLKRCVVGDKTADAEGAVACEYSESSGSQCCLLQEWLQEHPEELTLDATVRGATVPRKVYELVGVVERYIHLNSKPLRRFV | not soluble |
| MSLDLSLNNLYSISTVELIQAFANTPASVTSLNLSGNSLGFKNSDELVQILAAIPANVTSLNLSGNFLSYKSSDELVKTLAAIPFTITVLDLGWNDFSSKSSSEFKQAFSNLPASITSLNLRGNDLGIKSSDELIQILAAIPANVNSLNLRGNNLASKNCAELAKFLASIPASVTSLDLSANLLGLKLEHHHHHH | not soluble |
| SNAMSQEAFENKLYANLEAVIDPELGVDIVNLGLVYDVTADENNNAVITMTMTSIGCPMAGQIVSDVKKVLSTNVPEVNEIEVNVVWNPPWSKERMSRMAKIALGIRD | soluble |
| MGSDKIHHHHHHMSEAPHLTFDLDTPGVSTGHLVVPKGADCEALSLPVFSCNRGEGPSLLITGGNHGNELQGPILARRLVKWLPEAQRCGRIIIVPEINPLAVQAWTRNTPIDGKNLNRVFPGRSDGSVSERIADAISRLLLPVVDTVLDLHSFGPTWDCAPSIISHPIADIDQMTKTVSISKAFKLPVTLLWEHNETDGMFDTLVHRQGKTFICTEFGGGVVSAEALTIYEAGVRNGLIALGLVKGKAEYPTFRQQKTGQTLETTSSDQLKSPSPGIFEPRCSVMDEVEQGDVVGVLHPMGSLSAASIDIRAQSKSTVFAIRSAMYVQGNEEVAILARPLAR | not soluble |
| HIPEMGGQHYLGDSLDKDWRVTRDNQQFAFEYQDNEGQAQSKVLTLKVGDNLEEVATYINAQQSVVDASVTQDHQLQFFTSTLNAPEGITWKGNFADEMDIGSGELVTVDDLDMSTVGGAQLAIGVVDAAIKYVDSHRSEIGGFQNRVSGTIDNLNTINRSVSESKGRIRDTDFARESTVMVRSQVLQDATTALLAQAKQRPSSALGLLS | not soluble |
| MSLKIAIVNDMPMAVEALRRALAFDPSHEVVWVATNGAEAVKYCAELTPDLILMDLIMPVMDGVEATRRIMAESPCAIVIVTVDRQQNVHRVFEAMGHGALDVVDTPALGAGNAQEAAAPLLRKILNIGWLIGQEGHHHHHH | not soluble |
| MAEREQSNDSARTDVPAIVSLRTRELDTGEGRMQWASTLERLYCETDVAWPEPRRHFDAEWGGRPFGDLHVSTIRADAHTVVRSPAMIQSDSGEGYLVCLVTDGSVEVRQSGRATVVEPGSFALLDCAAPFVFHSPAPFRQVVVRSPREVLTSRLPGRIVEHGTARSIHGDTGAGGLVGRLFVDIADMDAPMSQGAAVSFASSAVDMLATALTEGLLATSAADLHRTEDLRRVQRVIEQNLHDADITLSDIAAAAGMSLRTVHKLFNAEGTTTRAWLYQARLEAARKYLLTTDLSVADVSECAGFRDVSHFSRLFRSTFGSSPGLYRKEHARRVS | not soluble |
| MARYYVLDLSEDFRRELRETLAEMVNPVEVHVFLSKSGCETCEDTLRLMKLFEEESPTRNGGKLLKLNVYYRESDSDKFSEFKVERVPTVAFLGGEVRWTGIPAGEEIRALVEVIMRLSEDESGLEDATKEALKSLKGRVHIETIITPSCPYCPYAVLLAHMFAYEAWKQGNPVILSEAVEAYENPDIADKYGVMSVPSIAINGYLVFVGVPYEEDFLDYVKSAAEGRLTVKGPIRAGEAEEL | soluble |
| MMRNEHVAKGITGVSWYDFKQKLKYKAECGNMEFIEIGRFDPSFEIWSRCGWIDYNLKLSDRIFRCENCGLVIDRDLNTAINISNMELKKVGKGIPEFTPVDIATAADPTIRTGTASSRSMNREPPKPKRLEHHHHHH | not soluble |
| MLQVLGRLINILFPLLRFILGIWWEKLRGKDPTVSRAKAIQLRELLTNLGPTYIKVGQALSTRPDLVPPVFLDELTTLQDQLPSFPNEVAYRFIEEELGAPAEEIYAELEHHHHHH | not soluble |
| KSTVEKSTVGQKVAIVREDTGTIAELAEKALGNMVDIVYAGSDLKEAEEAVKKEKAPAIIVIPKGFSQSLESGEKARLEIVWYLRGTGLSEAVSTGTISSLIESLKVQLASFLLNDPKKAQLLFDPLEIVQHTYLRGSLFKNHSPEAIMNVFYSQN | soluble |
| MAHHHHHHMPAVKWSSPVVRNELMSLTRLPAEMQRAAAAAVAAHKNAYSPYSNFSVGAALLHDDGSVTAGCNYENCTLQSCCAERCAIVRANVEGHRRANAVAVYGRSYGAATPTNPPPVDALCPPCGLCRQLLVEVADLSQNFEEFMVVLVALDAQRAKVVRLADLVPAKFGPADIGMDVTQLGCHPSA | not soluble |
| MSQYERFDSVLLSMAQQLSGGVPEMLDVLFEFLSRKTDFYSGAGVDQARTLLLEKFDKHGGKAMKEAEEAKKRKEEQERKLAERRAAQKAKEEEEFRNAKVVEVTDEEAAAFEKEQAKNSVENLEKFVDNEGETSKDAEVEDEDSKLMKPNSGNGADLAKYQWTQTLQELEVKIPIAAGFAIKSRDVVVKIEKTSVSVGLKNQAPIVDGKLPHAIKVENCNWVIENGKAIVLTLEKINDMEWWNRFLDSDPPINTKEVKPENSKLSDLDGETRAMVEKMMYDQRQKEMGLPTSDEKKKHDMLQQFMKQHPEMDFSNAKIG | soluble |
| MSDEKSTTPTAQLDAPADGNMNDLTSLIQGVLQQTQDRFQHMSDQIIRRIDDMTTRIDDLEKNINDLLQSNQVEHPPSAQ | not soluble |
| MKTIHIYTNGRLEEKRGDIVREFPLVLQVNGREIATLIASPHDLRFLVAGFLRNQGFVESAADFHMLAVCDEFGIANVRIRQELPERLKPVLTSGCGTGITFTLETGGREAAVAPSPAVAPEAVFRLMEELARQADNYRNHGGIHSAAVGDGEGNLLLFAEDIGRHNTLDRIAGEALLKGIDLAGRILVTSGRVSTEMASKCARLGIALVASRTSATDMAATLCHEAGICLLGYVRGGKFTVYTHSDRLLVPEQAAASLPGPVPRGRIPGVTGVILAGGQSSRMGSNKALLPYRGGRFIESIHRQLSEYFDEVIVVTNTPEQYEFLPCRKVTDIHEGMGALAGIHAGLHHSSNPAAFVVACDMPYLNGDLIRHLASMADPGGVLIPESPTGLEPLHAVYGKGCLAAIEATLLSGQRRIVSFFGRTNVNRVNVAQIAAFDPEFNSFRNINTPTDYYRLREIERGEALPAPADERAGASALEHHHHHH | not soluble |
| QHGSSTDPSFVALRNNSSLSCDGKSRLLEFGNDLGFSKEETDVLAKQKNWEQNYTNFKKQFEHKLLDPKSFSLTDVYNLFSGFQQSVADTVKLMNELQTQVNKANDIYPVESFQVPKVPQKLFGFVDQGFFPKLNPKGLNIADNVASLFEKYSLKQATLKDFDIVLEKKNDIVLEHKVRYNFALQ | not soluble |
| MGNNVVVLGTQWGDEGKGKIVDLLTERAKYVVRYQGGHNAGHTLVINGEKTVLHLIPSGILRENVTSIIGNGVVLSPAALMKEMKELEDRGIPVRERLLLSEACPLILDYHVALDNAREKARGAKAIGTTGRGIGPAYEDKVARRGLRVGDLFDKETFAEKLKEVMEYHNFQLVNYYKAEAVDYQKVLDDTMAVADILTSMVVDVSDLLDQARQRGDFVMFEGAQGTLLDIDHGTYPYVTSSNTTAGGVATGSGLGPRYVDYVLGILKAYSTRVGAGPFPTELFDETGEFLCKQGNEFGATTGRRRRTGWLDTVAVRRAVQLNSLSGFCLTKLDVLDGLKEVKLCVAYRMPDGREVTTTPLAADDWKGVEPIYETMPGWSESTFGVKDRSGLPQAALNYIKRIEELTGVPIDIISTGPDRTETMILRDPFDA | soluble |
| MGSDKIHHHHHHMKVRIRDFIETTEGLYFAVNTYAHPKNKFFAFLRYVPYEFVDFKIEDNNIREINGRKYIKMAESKIAYKFLEEKFSKYLYYDETINVLMHAIPKEDVKRILRPKERLNEIINEENNLNELEEKCRKLALILEDYGVPIKSMGVSGSLLLKLNNKNSDIDFVIYGKDMHKKAREALKQAFEDNKLKPLSDDFWKIAYKKRIKDKTLTYEEFVFYEKRKYNRGIVDNTMFDLLFTREWDEITEKYGDKRYKNLGFAKIEGRVLNDDFAFDNPAVYKIECYNDEDIKEVVSFTHTYAGQCFNGEEIVARGKLEEVIDKSGERYKRIVVGTTREAFNEYIKIKR | not soluble |
| MAHHHHHHMTSQPHVTMSKNTGSVTEQHKRMSHTTGDNNEEEKHILAGRYKTKLCKNYVARGECPYDVRCMFAHGEDELRTSDDNIRDGLVTEEAIKDFQRQQNQAKRRAAFAAAREHNNHDHSHSHNHSHSHNHTVRPVPHGNVYEMEENVESNEVYRNRNRHHNLRLHPPQEPVSIPQPQQQQQQEQQFQLQSVVAQYYTHNPYVFDLIPAAARLFPVYQEVVEEGCWYEEEPVPAQEDYYFPSSDMMMPLVPSLVTQQYLPYPHQQCSKQLETVASASTYSCEEAMYGHSESSASSAYRSVARCTAAELPSNSDIPAMVMEP | not soluble |
| GPLGSMQLKPMEINPEMLNKVLSRLGVAGQWRFVDVLGLEEESLGSVPAPACALLLLFPLTAQHENFRKKQIEELKGQEVSPKVYFMKQTIGNSCGTMGLIHAVANNQDKLGFEDGSVLKQFLSETEKMSPEDRAKCFEKNEAIQAAHDAVAQEGQCRVDDKVNFHFILFNNVDGHLYELDGRMPFPVNHGASSEDTLLKDAAKVCREFTEREQGEVRFSAVALCKAA | soluble |
| MVYPIRLYGDPVLRRKARPVEDFSGIKRLAEDMLETMFEAKGVGLAAPQIGLSQRLFVAVEYADEPEGEEERPLRELVRRVYVVANPVITYREGLVEGTEGCLSLPGLYSEEVPRAERIRVEYQDEEGRGRVLELEGYMARVFQHEIDHLDGILFFERLPKPKREAFLEANRAELVRFQKEARALLKELSQG | soluble |
| KGLMSKVKVITRGEATRLINKEDAVVVDLRQRDDFRKGHIAGAINLLPSDIKANNVGELEKHKSQPIIVVDGSGMQAQEPASALNKAGFEKVFVLKEGIAGWSGENLPLVRGK | not soluble |
| MSNPTKISILGRESIIADFGLWRNYVAKDLISDCSSTTYVLVTDTNIGSIYTPSFEEAFRKRAAEITPSPRLLIYNRPPGEVSKSRQTKADIEDWMLSQNPPCGRDTVVIALGGGVIGDLTGFVASTYMRGVRYVQVPTTLLAMVDSSIGGKTAIDTPLGKNLIGAIWQPTKIYIDLEFLETLPVREFINGMAEVIKTAAISSEEEFTALEENAETILKAVRREVTPGEHRFEGTEEILKARILASARHKAYVVSADEREGGLRNLLNWGHSIGHAIEAILTPQILHGECVAIGMVKEAELARHLGILKGVAVSRIVKCLAAYGLPTSLKDARIRKLTAGKHCSVDQLMFNMALDKKNDGPKKKIVLLSAIGTPYETRASVVANEDIRVVLAP | soluble |
| ELKDLQKDEKFWTESSQFKVSVPVGWDINHKEVCFEIGNEQNHTLICGRSGSGKSNFLHVLIQNLAFYYAPNEVQLFLLDYKEGVEFNAYTDPNILEHARLVSVASSVGYGMSFLNWLCKEMQERANLFKQFNVKDLSDYRKHGEIPRLIVVIDEFQVLFSDNKSTKAVEGHLNTLLKKGRSYGVHLILATQTMRGTDINRSIMAQIANRIALSMDAEDSNSILGDDAACELVRPEGIFNNNGGHQKHHTKMSIPKAP | not soluble |
